Experimental data reported in article PMC5829300.

Target: ^hexYME1^WB (^hexYME1 variant containing an E381Q Walker B mutant) (yeast) (UniProt P32795)
Assay: cryo-EM structure

stoichiometry N: 6
Substance: ^hexYME1^WB (^hexYME1 variant containing an E381Q Walker B mutant) (from UniProt P32795 279-712) (enzyme)
